Results published in article doi:10.1101/138099 (bioRxiv, 2017).
Positions count from the first letter of the chain named. Names and notes keep the numbering of the source. Values joined by “and” are separate entries in the source; they are usually repeats but may differ in a detail not shown here. Equal values may be shown once. Values belong to the molecule of their own block, whether it stands above or below them.

Key:
[1] = target: YweA_(BslA171-181 C178A), recombinant chimeric protein (Bacillus subtilis) (UniProt P71014); assay: non-reducing SDS-PAGE
[2] = target: YweA_(BslA171-181), recombinant chimeric protein (Bacillus subtilis); assay: SEC + other: non-reducing SDS-PAGE
[3] = target: YweA_(BslA171-181 C180A), recombinant chimeric protein (Bacillus subtilis) (UniProt P71014); assay: non-reducing SDS-PAGE
cross-linking = target: the molecule itself; assay: cross-linking
[4] = target: the molecule itself; assay: SEC + other: non-reducing SDS-PAGE

stoichiometry N [1]: 2
Molecule: YweA_(BslA171-181 C178A), recombinant chimeric protein (from UniProt P71014 171-181)

stoichiometry N [2]: 2
Molecule: YweA_(BslA171-181), recombinant chimeric protein

stoichiometry N [3]: 2
Molecule: YweA_(BslA171-181 C180A), recombinant chimeric protein (from UniProt P71014 171-181)

B1: BslA, wild type, from the B. subtilis NCIB3610 biofilm (natural protein, UniProt P71014 29-181, looked up)
chain: AESTSTKAHTESTMRTQSTASLFATITGASKTEWSFSDIELTYRPNTLLSLGVMEFTLPSGFTANTKDTLNGNALRTTQILNNGKTVRVPLALDLLGAGEFKLKLNNKTLPAAGTYTFRAENKSLSIGNKFYAEASIDVAKRSTPPTQPCGCN
stoichiometry N (cross-linking): 2 and 4

B2: BslA_(C180A) produced in the B. subtilis bslA deletion strain (NRS5178) (natural protein, Bacillus subtilis, UniProt P71014 29-181, looked up)
chain: B1 chain with C152A
stoichiometry N (cross-linking): 2

B3: BslA_(C178A) produced in the B. subtilis bslA deletion strain (NRS5177) (natural protein, Bacillus subtilis, UniProt P71014 29-181, looked up)
chain: B1 chain with C150A
stoichiometry N (cross-linking): 2

B4: Recombinant BslA_(42-181) (domain or fragment, Bacillus subtilis, UniProt P71014 42-181, looked up)
chain: MRTQSTASLFATITGASKTEWSFSDIELTYRPNTLLSLGVMEFTLPSGFTANTKDTLNGNALRTTQILNNGKTVRVPLALDLLGAGEFKLKLNNKTLPAAGTYTFRAENKSLSIGNKFYAEASIDVAKRSTPPTQPCGCN
stoichiometry N [4]: 2 and 4

B5: BslA_(C180A), recombinant BslA_(42-181) variant (domain or fragment, Bacillus subtilis, UniProt P71014 42-181, looked up)
chain: B4 chain with C139A
stoichiometry N [4]: 2

B6: BslA_(C178A), recombinant BslA_(42-181) variant (domain or fragment, Bacillus subtilis, UniProt P71014 42-181, looked up)
chain: B4 chain with C137A
stoichiometry N [4]: 2
